# In paper PMC8362889:
# Biological target: 2-azido-ATP (2-N3-ATP-biotin-long chain-hydrazone)
# Assay: photoaffinity labeling with 2-azido-ATP
# Conditions: 2.0 μg of full-length AsphyA protein (∼0.16 μM), wild-type labeling at 100 μM set as 100%, read off a plot
# [1] = 10 µM 2-azido-ATP, parent: est. 40
# [2] = 20 µM 2-azido-ATP, parent: est. 63
# [3] = 50 µM 2-azido-ATP, parent: est. 74
# [4] = 100 µM 2-azido-ATP, parent: est. 100
response [1] [%],response [2] [%],response [3] [%],response [4] [%],Substance
61,75,92,110,"Avena sativa phytochrome A, wild type, full-length recombinant protein with C-terminal strep-tag K411E"
82,120,140,140,"Avena sativa phytochrome A, wild type, full-length recombinant protein with C-terminal strep-tag T418V"
91,120,140,150,"Avena sativa phytochrome A, wild type, full-length recombinant protein with C-terminal strep-tag K411R"
